Numbering of substitutions follows the chain as printed.
Assays:
[1] = target: T1, human immunoglobulin E (hIgE) (human, UniProt P01854-1 1-428); test: SPR competition
T1 construct: also called human IgE; Native IgE (Abcam)
Method: (§1) For this purpose, a competition approach was set-up. […] The assay was performed in HBS-EP pH7.4 or HBS-EP pH 5.5. Raw data were analyzed via BIA evaluation software with a blank subtraction (2-1). […] The IC50 values of each compound were calculated with a non-linear regression (log(agonist) vs. response Variable slope (four parameters)).

[2] = target: T1, human immunoglobulin E (hIgE); test: competition ELISA
Method: (§2) The IC50 values of each compound were calculated with a non-linear regression (log(agonist) vs. response Variable slope (four parameters)).

[3] = target: T1, human immunoglobulin E (hIgE); test: SPR competition, hIgE over hFcεRIα chip, pH 5.5
Method: (§3) The assay was performed in HBS-EP pH7.4 or HBS-EP pH 5.5. Raw data were analyzed via BIA evaluation software with a blank subtraction (2-1). […] The IC50 values of each compound were calculated with a non-linear regression (log(agonist) vs. response Variable slope (four parameters)).
(§4) Raw data were analyzed via BIA evaluation software with a blank subtraction (2-1). […] The IC50 values of each compound, calculated with a non-linear regression (log(agonist) vs. response Variable slope (four parameters)).

[4] = target: T1, human immunoglobulin E (hIgE); test: SPR competition, hIgE over hFcεRIα chip, pH 7.4
Method: as §3, §4

[5] = target: T1, human immunoglobulin E (hIgE); test: SPR competition, hIgE + mAb over hFcεRIα chip, pH 7.4
Method: as §1

[6] = target: T1, human immunoglobulin E (hIgE); test: competition ELISA, biotin-hIgE to coated hFcεRIα, pH 6
Method: as §2

[7] = target: T1, human immunoglobulin E (hIgE); test: competition ELISA, biotin-hIgE to coated hFcεRIα, pH 7.4
Method: as §2

[8] = target: T1, human immunoglobulin E (hIgE); test: SPR competition, hIgE + mAb over hFcεRIα chip, pH 6 (text: pH 5.5)
Method: as §1

[9] = target: T1, human immunoglobulin E (hIgE); test: competition ELISA, hIgE to coated hFcεRIα, pH 6
Method: (§5) The IC50 values of each antibody were calculated with a non-linear regression (log(agonist) vs. response Variable slope (four parameters)).

[10] = target: T1, human immunoglobulin E (hIgE); test: competition ELISA, hIgE to coated hFcεRIα, pH 7.4
Method: as §5

T1 sequence (P01854 whole entry): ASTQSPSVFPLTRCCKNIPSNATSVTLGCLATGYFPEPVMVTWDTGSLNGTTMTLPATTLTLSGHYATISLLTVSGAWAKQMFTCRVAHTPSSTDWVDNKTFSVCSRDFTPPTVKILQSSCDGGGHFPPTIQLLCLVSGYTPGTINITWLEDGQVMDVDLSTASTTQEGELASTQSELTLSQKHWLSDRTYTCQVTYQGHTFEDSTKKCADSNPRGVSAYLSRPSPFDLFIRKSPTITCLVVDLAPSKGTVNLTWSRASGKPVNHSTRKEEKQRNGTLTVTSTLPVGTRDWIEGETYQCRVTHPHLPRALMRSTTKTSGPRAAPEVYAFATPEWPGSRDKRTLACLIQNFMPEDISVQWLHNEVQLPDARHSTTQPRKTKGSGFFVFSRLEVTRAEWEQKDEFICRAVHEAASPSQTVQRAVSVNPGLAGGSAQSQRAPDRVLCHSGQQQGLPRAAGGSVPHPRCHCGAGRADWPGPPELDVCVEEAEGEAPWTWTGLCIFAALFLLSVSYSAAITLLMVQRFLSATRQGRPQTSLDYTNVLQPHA

B1: 18B9 human IgG1 mAb (antibody, V domains shown)
VH: QVQLVESGGGLVQPGGSLRLSCAASGFTFSSYVMSWVRQAPGKGLEWVSSIYSDGSHTYYADSVKGRFTISRDNAKNTLYLQMNSLKSEDTAVYYCAKNLEHYSGSYYYTDPRYDYWGQGTQVTVSS
VL: SSALTQPSALSVTLGQTAKITCQGGSLGSSYVHWYQQKPGQAPVLVIYDGDSRPSGIPERFSGSSSGGTATLTISGAQAEDEDDYYCQSADSSGNAVFGGGTHLTVL
notes: human IgG1 and human light chain constant domains; also called clone 18B9
- Ratio pH 6/7.4 (IC50) [1]: 1.4
- Ratio pH 6/7.4 (IC50) [2]: 2.7
- IC50 [3]: 1.07 µg/mL
- IC50 [4]: 0.662 µg/mL
- IC50 [5]: 4.09 nM
- IC50 [6]: 112 nM
- IC50 [7]: 41.9 nM
- IC50 [8]: 5.65 nM

B2: 18E2 human IgG1 mAb (antibody, V domains shown)
VH: QLQLVESGGGLVQPGGSLRLSCAASGFTFSSYVMSWVRQAPGKGLEWVSSIYHDGSHTYYADFVKGRFTISRDNAKNTLYLQMNSLKSEDTAVYYCASGTSYSGSYYYTDPFFGSWGQGTQVTVSS
VL: NFMLTQPSALSVTLGQTARITCQGDRLGSRYIYWYQQKPPQAPVLVIHDDDRRPSGIPERFSGSSSGGTATLTISGAQAEDDGDYYCQSADSSGNPVFGGGTHLTVL
notes: also called clone 18E2
- Ratio pH 6/7.4 (IC50) [2]: 2.4
- IC50 [3]: 0.484 µg/mL
- IC50 [4]: 0.628 µg/mL
- IC50 [6]: 87.8 nM
- IC50 [7]: 36.9 nM

B3: VH3D1_S35H (antibody, V domains shown)
VH: QLQVVESGGGLVQPGGSLRLSCAASGFTFSSYYMHWVRQAPGKGLEWVSSIYSDGRGSKTFYADSVKGRFTISRDNAKNTLYLQMNSLKSEDTAVYFCAKDLLVAARGSMDYWGQGTQVTVSS
VL: NFMLTQPSAVSVSLEQTARITCQGGTLGSYGAHWYQQKPGQAPVLLIYGDNSRPSGIPERFSGTRSGGTATLTISGAQAEDEADYYCQSFDYSGNAVFGGGTHLTVL
- IC50 [3]: 23 µg/mL
- IC50 [4]: 15.5 µg/mL

B4: VL3D1_Y49H VL3D1_Q89H (antibody, V domains shown)
VH: B3 VH with H35S
VL: B3 VL with Y48H, Q88H
- IC50 [3]: 15.2 µg/mL
- IC50 [4]: 4.41 µg/mL

B5: 13E4_MG (antibody, V domains shown)
VH: B2 VH with Q1E, L2V, V5L, A75S, K87R, S88A, S98K, Q121L
VL: SSELTQDPAVSVALGQTVRITCQGGSLGSNYAYWYQQKPGQAPVLVIYDDDSRPSGIPDRFSGSSSGNTASLTITGAQAEDEADYYCQSADSNGNAVFGGGTQLTVL
notes: germlined clone; also called germlined 13E4
- IC50 [9]: 0.0633 µg/mL
- IC50 [10]: 0.0242 µg/mL

B6: 18E2His2_MG (antibody, V domains shown)
VH: B2 VH with Q1E, L2V, V5L, S35H, A75S, K87R, S88A, S98K, Q121L
VL: B5 VL with G25D, S26R, N30R, A32I, Y33H, S52R, N93S, A96P
notes: also called 18E2VHS35HVLY34HMG
- IC50 [9]: ~11300 µg/mL
- IC50 [10]: 3.91 µg/mL

B7: 18E2_VL Y34H_MG (antibody, V domains shown)
VH: QLLESGGGLVQPGGSLRLSCAASGFTFSSYVMSWVRQAPGKGLEWVSSIYHDGSHTYYADFVKGRFTISRDNSKNTLYLQMNSLRAEDTAVYYCAKGTSYSGSYYYTDPFFGSWGQGTLVTVSS
VL: B5 VL with G25D, S26R, N30R, A32I, Y33H, S52R, N93S, A96P
notes: germlined clone
- IC50 [9]: 61.4 µg/mL
- IC50 [10]: 0.706 µg/mL

B8: 18E2_H S35H_MG (antibody, V domains shown)
VH: B2 VH with Q1E, L2V, V5L, S35H, A75S, K87R, S88A, S98K, Q121L
VL: B5 VL with G25D, S26R, N30R, A32I, S52R, N93S, A96P
notes: germlined clone
- IC50 [9]: 0.671 µg/mL
- IC50 [10]: 0.0657 µg/mL

B9: 18B9His_MG (antibody, V domains shown)
VH: B1 VH with Q1E, V5L, A75S, K87R, S88A, Q122L
VL: B5 VL with N30S, A32V, Y33H, D50G, N93S
- IC50 [9]: 1.74 µg/mL
- IC50 [10]: 0.176 µg/mL

B10: 3D6 human IgG1 mAb (antibody, V domains shown)
VH: QVQLVESGGGLVQPGGSLRLSCAASGFTFSSYYMTWVRQAPGKGLEWVSSIYSDGSNTYYADSVKGRFTISRDNAKNTLHLQMNSLKSEDTAVYYCAKDLKARYSGSYHDEGYDYWGQGTQVTVSS
VL: B1 VL with S1Q, V32A, G50D, T69R, D83G, A96P, H103K
notes: human IgG1 and human light chain constant domains; also called clone 3D6
- Ratio pH 6/7.4 (IC50) [1]: 1.8
- Ratio pH 6/7.4 (IC50) [2]: 2.8
- IC50 [5]: 4.37 nM
- IC50 [6]: 214 nM
- IC50 [7]: 75.4 nM
- IC50 [8]: 8.04 nM

B11: 16E4 human IgG1 mAb (antibody, V domains shown)
VH: B10 VH with Q1E, T35S, N57Y, T58A, H80Y, S107T
VL: B1 VL with T17S, S29A, S30T, V32A, H33Y, G50D, T69R, D83G, D91Y, S93N
notes: also called clone 16E4
- Ratio pH 6/7.4 (IC50) [1]: 1.2
- Ratio pH 6/7.4 (IC50) [2]: 2.7
- IC50 [5]: 4.25 nM
- IC50 [6]: 156 nM
- IC50 [7]: 58 nM
- IC50 [8]: 5.17 nM

B12: 3A1 human IgG1 mAb (antibody, V domains shown)
VH: EVQVQESGGGLVQPGGSLRLSCAASGFTFDNYAMSWVRQAPGKGLEWVSAISWNGGSTYYAESMKGRFTISRDNAKNMLYLQMNSLKSEDTAVYYCAKDLLVAARGGMDYWGKGTLVTVSS
VL: B3 VL with N1S, F2S, M3A
notes: human IgG1 and human light chain constant domains; also called clone 3A1
- Ratio pH 6/7.4 (IC50) [1]: 1.5
- Ratio pH 6/7.4 (IC50) [2]: 1
- IC50 [5]: 4.76 nM
- IC50 [6]: 148 nM
- IC50 [7]: 152 nM
- IC50 [8]: 6.91 nM

B13: 20D5 human IgG1 mAb (antibody, V domains shown)
VH: B1 VH with V2L, T28A, S35T, G66D, Y80F, N99D, L100A, H102Y, P112T, R113K
VL: B1 VL with V32A, D49A, G50D, D83G
notes: also called clone 20D5
- Ratio pH 6/7.4 (IC50) [1]: 1.1
- Ratio pH 6/7.4 (IC50) [2]: 1.1
- IC50 [5]: 3.38 nM
- IC50 [6]: 39.1 nM
- IC50 [7]: 35.2 nM
- IC50 [8]: 3.83 nM

B14: VH18E2_S35H (antibody, V domains shown)
VH: B2 VH with S35H
VL: B2 VL
- IC50 [3]: 3.73 µg/mL
- IC50 [4]: 0.811 µg/mL

B15: VL18E2_Y34H (antibody, V domains shown)
VH: B2 VH
VL: B2 VL with Y33H
- IC50 [3]: 5.18 µg/mL
- IC50 [4]: 1.1 µg/mL

B16: VH18B9_S35H (antibody, V domains shown)
VH: B1 VH with S35H
VL: B1 VL
- IC50 [3]: 22.3 µg/mL
- IC50 [4]: 21.7 µg/mL
